The text below walks through data of PMC11559089.

Experiment [1] has as its target full-length HIV-1 integrase Y99H/A128T (HIV-1). Put plainly: SEC; Superdex 200 10/300 GL; 20 µM IN; 20 mM HEPES pH 7.5, 1 M NaCl, 10% glycerol, 5 mM BME; 0.3 mL/min; incubated 1 h at 4°C; size by protein standards; no inhibitor. In general terms: In gel filtration, larger molecules generally elute earlier.
The target in experiment [2] is full-length WT HIV-1 integrase (IN) (HIV-1). The description is as above.

Broadly, the stoichiometry N is a count of units in the complex or per binding partner. In turn, “full-length HIV-1 integrase Y99H/A128T (enzyme)” had a stoichiometry N in experiment [1] of 4.
For “full-length WT HIV-1 integrase (IN) (enzyme)”, in experiment [2], the stoichiometry N is 4.
